The conditions of series [1]: human serum and full blood (EDTA), room temperature, 30 min and 2 hours; CNP-22 EIA; n = 12.
Description: We studied 12 male volunteers (mean age 29 ± 2 years, normal weight, no drug therapy, no history of cardiovascular or other diseases, 3 smokers). From all investigated subjects informed consent was obtained. Triplets of fasting blood samples were taken from all volunteers at 8 o’clock in the morning. Blood samples were collected using the 7.5 ml S-Monovette® collection system (Sarstedt, Nümbrecht, Germany) containing either clotting activator (Kaolin) for serum samples, sodium-citrate for plasma samples or Potassium–EDTA for full blood samples. All samples for baseline analyses were immediately centrifuged at 2,000 × g for 10 min at 4°C and supernatant was stored at −70°C until analysis. For mid-term analyses (30 minutes or 2 hours), plasma samples were centrifuged at 2,000 × g for 10 min at room temperature. Supernatant was removed and stored at room temperature for 30 min or 2 hours. Following blood clotting, serum samples were processed identically to plasma samples. Supernatant was saved and also stored at room temperature for 30 min or 2 hours. Full blood samples were stored at room temperature without centrifugation. […] The concentration of CNP was measured using the CNP-22 EIA Kit (#EK-012-03, Phoenix Pharmaceuticals, Karlsruhe, Germany) according to the manufacturer’s protocol. […] Data were analyzed using MedCalc® for Windows, Version 10.0.1.0 (MedCalc Software, Mariakerke, Belgium).
The conditions of series [2]: unknown storage conditions of blood samples; ref manufacturer's protocol; cited from earlier work. The procedure: Consequently, the stability of the CNP peptide is most likely not affected by any delay in sample processing for at least two hours. ProCNP has already been reported (manufacturer’s protocol, unknown storage conditions of blood samples) to be stable for at least 2.5 hours. Accordingly, our experiments confirmed the stability of NT-proCNP even at room temperature.

Turning to C-type natriuretic peptide [CNP], the “stability of CNP in serum and full blood samples” value in series [1] is “stable in serum and in full blood samples for at least two hours at room temperature”.

B1: ProCNP: pro-peptide of CNP, reported stable per the manufacturer's protocol (peptide, UniProt P23582 24-126, looked up)
pro-form: KPGAPPKVPRTPPAEELAEPQAAGGGQKKGDKAPGGGGANLKGDRSRLLRDLRVDTKSRAAWARLLQEHPNARKYKGANKKGLSKGCFGLKLDRIGSMSGLGC
modifications: pro-form
As for B1, the “time for which ProCNP is stable” value in series [2] is “at least 2.5 hours”.

These data come from article PMC3621618, “Comparative measurement of CNP and NT-proCNP in human blood samples: a methodological evaluation” (Journal of Negative Results in Biomedicine, 2013).
